From the DeepSol protein solubility set

Assay: soluble on expression in E. coli; label from the status in PepcDB or PDB records
With “GSHMKNPYSNQIEREELILKYLPLVKAIATNIKKHLPEDVDIRDLISYGVIGLIKAVDNLSTENPKRAEAYIKLRIKGAIYDYLRSLDFGSRQVREKERRIKEVVEKLKEKLGREPTDEEVAKELGISTEELFKTLDKINFSYILSLEEVFRDFARDYSELIPSSTNVEEEVIKRELTEKVKEAVSKLPEREKLVIQLIFYEELPAKEVAKILETSVSRVSQLKAKALERLREMLSNPL” the “soluble on expression in E. coli” value was “soluble”. For “GSHMLEVLTQKHKPAESQQQAAETEGSCNKKDQNECKSPCKWHNDAENKKCTLDKEEAKKVADETAKDGKTGNTNTTGSS”, the “soluble on expression in E. coli” value was “soluble”. With “GSHMSQSFGRVLTIVHSDCALLERDGNISLLSLPVAERWLRQAQLTPGEAPVCAQPLLIPLRLKVSAEEKSALEKAQSALAELGIDFQSDAQHVTIRAVPLPLRQQNLQILIPELIGYLAKQSVFEPGNIAQWIARNLMSEHAQWSMAQAITLLADVERLCPQLVKTPPGGLLQSVDLHPAIKALKDE” the “soluble on expression in E. coli” value was “soluble”. In the case of “GSHMTTSSRYKTELCRTYSESGRCRYGAKCQFAHGLGELRQANRHPKYKTELCHKFKLQGRCPYGSRCHFIHNPTED”, the “soluble on expression in E. coli” value is reported as “soluble”. In the case of “GSHSLRYFYTAVSRPGLGEPRFIAVGYVDDTEFVRFDSDAENPRMEPRARWMEREGPEYWEQQTRIAKEWEQIYRVDLRTLRGYYNQSEGGSHTIQEMYGCDVGSDGSLLRGYRQDAYDGRDYIALNEDLKTWTAADFAAQITRNKWERARYAERLRAYLEGTCVEWLSRYLELGKETLLRSDPPEAHVTLHPRPEGDVTLRCWALGFYPADITLTWQLNGEDLTQDMELVETRPAGDGTFQKWASVVVPLGKEQNYTCRVEHEGLPKPLSQRWEPLLEHHHHHH”, the “soluble on expression in E. coli” value is reported as “soluble”. With “GSLATCIGEKIEDFKVGNLLGKGSFAGVYRAESIHTGLEVAIKMIDKKAMYKAGMVQRVQNEVKIHCQLKHPSILELYNYFEDSNYVYLVLEMCHNGEMNRYLKNRVKPFSENEARHFMHQIITGMLYLHSHGILHRDLTLSNLLLTRNMNIKIADFGLATQLKMPHEKHYTLCGTPNYISPEIATRSAHGLESDVWSLGCMFYTLLIGRPPFDTDTVKNTLNKVVLADYEMPSFLSIEAKDLIHQLLRRNPADRLSLSSVLDHPFMSRNSSTKSKDLGTVEDSIDSGHATISTAITASSSTSISGSLFDKRRLLIGQPLPNKMTVFPKEG” the “soluble on expression in E. coli” value was “soluble”. With “GSLDALGSQPIHLWQFLKELLLKPHSYGRFIRWLNKEKGIFKIEDSAQVARLWGIRKNRPAMNYDKLSRSIRQYYKKGIIRKPDISQRLVYQFVHPI” the “soluble on expression in E. coli” value was “soluble”. With “GSLVPELNEKDDDQVQKALASRENTQLMNRDNIEITVRDFKTLAPRRWLNDTIIEFFMKYIEKSTPNTVAFNSFFYTNLSERGYQGVRRWMKRKKTQIDKLDKIFTPINLNQSHWALGIIDLKKKTIGYVDSLSNGPNAMSFAILTDLQKYVMEESKHTIGEDFDLIHLDCPQQPNGYDCGIYVCMNTLYGSADAPLDFDYKDAIRMRRFIAHLILTDALK” the “soluble on expression in E. coli” value was “soluble”. For “GSMDCEVNNGSSLRDECITNLLVFGFLQSCSDNSFRRELDALGHELPVLAPQWEGYDELQTDGNRSSHSRLGRIEADSESQEDIIRNIARHLAQVGDSMDRSIPPGLVNGLALQLRNTSRSEEDRNRDLATALEQLLQAYPRDMEKEKTMLVLALLLAKKVASHTPSLLRDVFHTTVNFINQNLRTYVRSLARNGMD”, the “soluble on expression in E. coli” value was “soluble”. In the case of “GSQPAKKTYTWNTKEEAKQAFKELLKEKRVPSNASWEQAMKMIINDPRYSALAKLSEKKQAFNAYKVQTEK”, the “soluble on expression in E. coli” value is reported as “soluble”. For “GSQVQLVESGGGLVQAGGSLRLSCAASGYAYTYIYMGWFRQAPGKEREGVAAMDSGGGGTLYADSVKGRMTISRDKGKNTVYLQMDSMKPEDTATYYCAAGGYELRDRTYGQWGQGTQVTVSS”, the “soluble on expression in E. coli” value was “soluble”. With “GSSHHHHHHMGNVFDYEDIQLIPAKCIVNSRSECDTTVTLGKHKFKLPVVPANMQTIIDERIATYLAENNYFYIMHRFQPEKRISFIRDMQSRGLIASISVGVKEDEYEFVQQLAAEHLTPEYITIDIAHGHSNAVINMIQHIKKHLPESFVIAGNVGTPEAVRELENAGADATKVGIGPGKVCITKIKTGFGTGGWQLAALRWCAKAASKPIIADGGIRTNGDVAKSIRFGATMVMIGSLFAGHEESPGETIEKDGKLYKEYFGSASEFQKGEKKNVEGKKMFVEHKGSLEDTLIEMEQDLQSSISYAGGTKLDSIRTVDYVVVKNSIFNGDKVY” the “soluble on expression in E. coli” value was “soluble”. With “GSSHHHHHHSSGLVPRGSHMGSIIDAAAAAGPVVLMETAFRKAVESRQIPGAVIMARDASGNLNYTRCFGARTVRRDENNQLPPLQVDTPCRLASATKLLTTIMVLQCMERGLVDLDETVDRLLPDLSAMPVLEGFDDAGNARLRERRGKITLRHLLTHTSGLSYVFLHPLLREYMAQGYLQSAEKFGIQSRLAPPAVNDPGAEWIYGTNLDWAGKLVERATGLDLEQYLQENICAPLGITDMTFKLQQRPDMLARRADQTHRNSADGRLRYDDSVYFRADGEECFGGQGVFSSPGSYMKVLHSLLKRDGLLLQPQTVDLMFQPALEPRLEEQMNQHMDASPHINYGGPMPMVLRRSFGLGGIIALEDLDGENWRRKGSLTFGGGPNIVWQIDPKAGLCTLAFFQLEPWNDPVCRDLTRTFEHAIYAQYQQG” the “soluble on expression in E. coli” value was “soluble”. With “GSSQISDMTRDGLANKALAVARTLADSPEIRQGLQKKPQESGIQAIAEAVRKRNDLLFIVVTDMQSLRYSHPEAQRIGQPFKGDDILKALNGEENVAINRGFLAQALRVFTPIYDENHKQIGVVAIGLELSRVTQQINDSRW” the “soluble on expression in E. coli” value was “soluble”. With “GSSWSAINPEYAARMRIQNRFKTGLDIAKYTAAIMRKDMAEYDADSSVYTQSLGCWHGFIGQQKLISIKKHLKTTNKRYLYLSGWMVAALRSDFGPLPDQSMHEKTAVSGLIEELYTFLRQADARELDLLFTGLDAARAAGDKAKEAELLAQIDNFETHVVPIIADIDAGFGNAEATYLLAKKMIEAGACCIQIENQVSDEKQCGHQDGKVTVPHIDFLAKINAVRYAFLELGVDDGVIVARTDSLGAGLTKQIAVTNEPGDLGDLYNSFLDCEEISESELGNGDVVIKREGKLLRPKRLASNLFQFRKGTGEDRCVLDCITSLQNGADLLWIETEKPHVGQIKAMVDRIREVIPNAKLVYNNSPSFNWTLNFRQQVFDAFVAEGKDVSAYDRNKLMSVEYDDTELAKVADEKIRTFQRDGSAHAGIFHHLITLPTYHTAALSTDNLAKGYFADEGMLAYVKGVQRQELRQGIACVKHQNMAGSDIGDNHKEYFAGEAALK” the “soluble on expression in E. coli” value was “not soluble”. For “GSTPHLVNLNEDPLMSECLLYHIKDGVTRVGQVDMDIKLTGQFIREQHCLFRSIPQPDGEVVVTLEPCEGAETYVNGKLVTEPLVLKSGNRIVMGKNHVFRFNH”, the “soluble on expression in E. coli” value was “soluble”. For “GTGGAAATTYGAACAGGTGAATTTGAAGATATTGCGGGCATTACCGACATCTTTAACTTTTATATTGAACAAACCAATGCACGCTTTGAGGAATTTCCATTTACTCTGGAAAATCGTGAGGAATGGTTCTCTCAGTTTTCTAGAACCGCCAAATATCAAATATATGTGGCTGTAGAAAACGGTGTGTTGCAAGGTTTTGCATGTTCCCAAAAGTACAGAGCAATACCAGCTTTTGATGACACTGTAGAGGTGAGCGTTTATCTGGCACAAGAAGCTAAAGGGAAAGGTTTAGGTTCGAAGCTTTATACTCAGCTGTTTTCATCCATTCGTGCTTATGGCGTCCATCGTATATTGTCGGGTGTTGCATTACCAAATGACGCATCAGTAGCATTACATAAACGGTTTGGTTTCCGAGAAGTCGGCATTTCCAACGAATATGCCAAGAAACATGGGCAGTACATCAGCTCGTTGTGGTTAGAAAAAGCGCTTAACGTAGAGTCCGCTTTATAA”, the “soluble on expression in E. coli” value was “not soluble”. With “GTIITVTAQANEKNTRTVSTAKGDKKIISVPLFEKEKGSNVKVAYGSAFLPDFIQLGDTVTVSGRVQAKESGEYVNYNFVFPTVEKVFITNDNSSQSQAKQDLFGGSEPIEVNSEDLPF” the “soluble on expression in E. coli” value was “soluble”. In the case of “GTIPKPTLWAEPDSVITQGSPVTLSCQGSLEAQEYRLYREKKSASWITRIRPELVKNGQFHIPSITWEHTGRYGCQYYSRARWSELSDPLVLVMTGAYPKPTLSAQPSPVVTSGGRVTLQCESQVAFGGFILCKEGEDEHPQCLNSQPHARGSSRAIFSVGPVSPNRRWSHRCYGYDLNSPYVWSSPSDLLELLVPG”, the “soluble on expression in E. coli” value is reported as “soluble”. For “GTQGKVIKCKAAIAWKTGSPLCIEEIEVSPPKACEVRIQVIATCVCHTDINATDPKKKALFPVVLGHECAGIVESVGPGVTNFKPGDKVIPFFAPQCKRCKLCLSPLTNLCGKLRNFKYPTIDQELMEDRTSRFTCKGRSIYHFMGVSSFSQYTVVSEANLARVDDEANLERVCLIGCGFSSGYGAAINTAKVTPGSTCAVFGLGCVGLSAIIGCKIAGASRIIAIDINGEKFPKAKALGATDCLNPRELDKPVQDVITELTAGGVDYSLDCAGTAQTLKAAVDCTVLGWGSCTVVGAKVDEMTIPTVDVILGRSINGTFFGGWKSVDSVPNLVSDYKNKKFDLDLLVTHALPFESINDAIDLMKEGKSIRTILTF”, the “soluble on expression in E. coli” value was “soluble”. With “GWRAKVAGIDPKGSDTHYSEGSSYTFYPYGQAVLLPNIFAHRDVGNTACPGRYGYAQMDNIRNIAKQKYDSIRSGSGATAPAAPSTPSKPAPAPAAPAAPSAPAAPAGTNPIGLLSQGSTPANAGSLVGLAVAAATSLGLIGNLNNIGDVPVIGGLKLSQLQPIIGKIVELLGNNDISRVWRDVNSFAGAALGNARSPIAHYASATGTPIDYALFDNGIVISNPETGTNALWGTIGDLWAQQGFEAGPLGLPTSSVFEVDGLQRVNFQHGYITFNPTTSAVDIQVQ” the “soluble on expression in E. coli” value was “not soluble”. For “GYDGVRIGQGYDIHQIRVGPPEDIVADTTADTAANTADPNKQSFKRLTIGGVPVETISVLSHSDGDVIFHALVDALLGGMSCSDLGTLFPDGSPKYKNKNSLSFLRYARLLLYKRNYAIANVDIIVIAEVPKISPIREEIVRNISSALGISESQVSLKGKTHEQLGPVGQKKAIECFANALLIRKQS”, the “soluble on expression in E. coli” value was “soluble”. For “HDLALSGNAYKVRLFLSLIGREATLRPVDFLNREHKTQAFLRMNPRGQIPVLEDGELQLGDSHAILVYLARRHADPVWYPLDPVSQGRIAYWLSYSANEVQNGPASARLITRFNLPLDREQTHQRGLEVLRLVDRHLAEHRWLAQGEQPSIADVALYPYLALAPEGGLALDHYPALNAWIARIRALPGYIPMPGL”, the “soluble on expression in E. coli” value was “not soluble”. For “HGSMEVPVSRAYGCFQEGPEAPISSACREAKRVGGAQAMYDWNAINQTPAGDNHQALVPDGALCGGGKAEFKGFNLARSDWRATSIVPDAKGDYEFVFQATAPHATKYFRLYVTRDGWNPSTPLKWSDLTLFGAYNGNPPLDVGNRYRMTMRLPAGKTGRHIIYSVWKRSDSEEAFYACSDVSFGH”, the “soluble on expression in E. coli” value was “not soluble”. For “HGSMTDTYLHETLVFDNKLSYIDNQRDTDGPAILLLPGWCHDHRVYKYLIQELDADFRVIVPNWRGHGLSPSEVPDFGYQEQVKDALEILDQLGVETFLPVSHSHGGWVLVELLEQAGPERAPRGIIMDWLMWAPKPDFAKSLTLLKDPERWREGTHGLFDVWLDGHDEKRVRHHLLEEMADYGYDCWGRSGRVIEDAYGRNGSPMQMMANLTKTRPIRHIFSQPTEPEYEKINSDFAEQHPWFSYAKLGGPTHFPAIDVPDRAAVHIREFATAIRQGQ”, the “soluble on expression in E. coli” value was “soluble”. With “HHHHHGSIMKVLRKGDRGDEVCQLQTLLNLCGYDVGKPDGIFGNNTFNQVVKFQKDNCLDSDGIVGKNTWAELFSKYSPPIPYKTIPMPTANKSRAAATPVMNAVENATGVRSQLLLTFASIESAFDYEIKAKTSSATGWFQFLTGTWKTMIENYGMKYGVLTDPTGALRKDPRISALMGAELIKENMNILRPVLKREPTDTDLYLAHFFGPGAARRFLTTGQNELAATHFPKEAQANPSIFYNKDGSPKTIQEVYNLMDGKVAAHRK” the “soluble on expression in E. coli” value was “soluble”.
